{"source": "patent US5688911A", "about": "“Trk neurotrophin binding motifs” (priority 1995, dated 1997)", "key": {"[1]": {"target": "T1, NGF (Mus musculus, UniProt P01139)", "T1 construct": "Mouse submaxillary gland NGF-β, was purchased from Sigma Immuno Chemicals; purchased Amersham (125I-NGFβ); Sigma Immuno Chemicals (unlabelled NGF-β); host or cells: mouse submaxillary gland", "T1 sequence (P01139 122-241)": "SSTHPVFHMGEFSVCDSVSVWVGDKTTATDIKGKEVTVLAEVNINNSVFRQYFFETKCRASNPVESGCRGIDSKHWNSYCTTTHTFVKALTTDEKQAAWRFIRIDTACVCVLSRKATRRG", "assay": "Qualitative binding assay, receptor affinity, 125I-NGF", "set-up": "key: +neurotrophin binding; -no neurotrophin binding detectible", "conditions": "Table 2"}, "[2]": {"target": "T2, NT-4 (Xenopus laevis, UniProt P24727)", "T2 sequence (P24727 114-236)": "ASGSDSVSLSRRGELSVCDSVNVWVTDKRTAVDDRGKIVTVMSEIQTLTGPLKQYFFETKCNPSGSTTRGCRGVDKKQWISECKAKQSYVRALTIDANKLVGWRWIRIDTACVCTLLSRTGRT", "assay": "Qualitative binding assay, receptor affinity, 125I-NT-4", "set-up": "key to 125I-Neurotrophin NTA binding (qualitative): +neurotrophin binding; -no neurotrophin binding detectible"}, "[3]": {"target": "T3, rat TrkB (Rattus norvegicus, UniProt Q63604)", "T3 construct": "host or cells: mouse NIH 3T3 fibroblasts (transfected)", "T3 sequence (Q63604 32-821)": "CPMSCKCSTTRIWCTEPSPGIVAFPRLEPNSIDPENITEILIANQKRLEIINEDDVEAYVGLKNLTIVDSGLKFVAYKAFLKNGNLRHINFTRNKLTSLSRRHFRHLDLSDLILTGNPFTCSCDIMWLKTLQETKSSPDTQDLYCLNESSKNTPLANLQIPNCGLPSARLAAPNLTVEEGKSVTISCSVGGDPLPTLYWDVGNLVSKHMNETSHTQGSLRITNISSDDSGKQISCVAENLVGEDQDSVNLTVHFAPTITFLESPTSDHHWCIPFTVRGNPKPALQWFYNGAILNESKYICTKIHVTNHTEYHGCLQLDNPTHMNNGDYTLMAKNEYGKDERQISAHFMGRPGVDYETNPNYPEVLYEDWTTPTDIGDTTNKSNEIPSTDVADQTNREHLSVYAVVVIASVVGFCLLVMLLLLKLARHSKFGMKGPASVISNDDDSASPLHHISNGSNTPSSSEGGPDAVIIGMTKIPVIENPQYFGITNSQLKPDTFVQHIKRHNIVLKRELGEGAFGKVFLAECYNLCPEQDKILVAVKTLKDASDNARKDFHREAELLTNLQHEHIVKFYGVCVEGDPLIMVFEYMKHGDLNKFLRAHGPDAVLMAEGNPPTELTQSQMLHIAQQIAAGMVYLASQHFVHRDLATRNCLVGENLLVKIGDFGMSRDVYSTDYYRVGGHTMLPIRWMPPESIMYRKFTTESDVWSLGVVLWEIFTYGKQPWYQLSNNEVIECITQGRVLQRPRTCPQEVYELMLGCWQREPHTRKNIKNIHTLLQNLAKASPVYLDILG", "conditions": "mouse NIH 3T3 fibroblasts expressing rat TrkB; cited from earlier work"}, "[4]": {"target": "TrkB receptors", "conditions": "non-neuronal cells ectopically expressing TrkB; read-out: affinities; cited from earlier work"}, "[5]": {"target": "T4, BDNF (Mus musculus, UniProt P21237)", "T4 sequence (P21237 131-249)": "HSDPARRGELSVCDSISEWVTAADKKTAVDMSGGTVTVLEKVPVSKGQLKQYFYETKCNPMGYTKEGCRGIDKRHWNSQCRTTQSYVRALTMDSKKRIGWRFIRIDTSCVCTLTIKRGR", "assay": "Qualitative binding assay, receptor affinity, 125I-BDNF", "set-up": "key: A \"+\" indicates binding of the neurotrophin in a qualitative binding assay using receptor affinity columns (no Kd determined); A \"-\" indicates that no binding of the neurotrophin to the respective receptor module could be detected"}, "[6]": {"target": "T5, NT-3 (Mus musculus, UniProt P20181)", "T5 sequence (P20181 140-258)": "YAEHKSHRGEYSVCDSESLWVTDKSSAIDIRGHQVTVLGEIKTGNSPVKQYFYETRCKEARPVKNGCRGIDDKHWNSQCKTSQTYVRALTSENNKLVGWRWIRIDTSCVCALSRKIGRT", "assay": "Qualitative binding assay, receptor affinity, 125I-NT-3", "set-up": "key: A \"+\" indicates binding of the neurotrophin in a qualitative binding assay using receptor affinity columns (no Kd determined); A \"-\" indicates that no binding of the neurotrophin to the respective receptor module could be detected"}}, "note": "No end group written: not given here.", "data": [{"molecule": "TIVDSGLKFVAYKAFLKNGNLRHI (SEQ ID NO: 5) [TrkB L2]", "values": [{"measurement": "125I-Neurotrophin NGF binding (qualitative)", "setting": "[1]", "value": "-"}, {"measurement": "125I-Neurotrophin NTA binding (qualitative)", "setting": "[2]; Table 2", "value": "+"}]}, {"molecule": "NT-3: neurotrophin 3; iodinated form in binding studies", "values": [{"measurement": "Kd", "setting": "[3]", "value": "~1.3", "unit": "nM"}, {"measurement": "Kd", "setting": "[4]", "value": "~1", "unit": "nM"}]}, {"molecule": "TIVKSGLRFVAPDAFHFTPRLSHL (SEQ ID NO: 4) (TIVKSGLRFVAPDAFHFTPRLSHL; also: MBP fusion partner) [TrkA L2, isolated 24 amino acid second leucine-rich motif of rat TrkA (Thr97-Leu120), MBP fusion]", "values": [{"measurement": "BDNF binding (qualitative)", "setting": "[5]", "value": "-"}, {"measurement": "NT-3 binding (qualitative)", "setting": "[6]", "value": "-"}]}, {"molecule": "TIKNSGLRSIQPRAFAKNPHLRYI (SEQ ID NO:3) (TIKNSGLRSIQPRAFAKNPHLRYI) [LRM2 of TrkC, 24 amino acid second leucine rich motif of TrkC]", "values": [{"measurement": "binding of neurotrophin-4", "setting": "[2]; data not shown", "value": "found to bind neurotrophin-4"}]}, {"molecule": "BDNF: Brain-derived neurotrophic factor, a neurotrophin; iodinated form in binding studies (protein, UniProt P23560 19-247, looked up, 125I label) Neurotrophic factor BDNF …: APMKEANIRGQGGLAYPGVRTHGTLESVNGPKAGSRGLTSLADTFEHVIEELLDEDQKVRPNEENNKDADLYTSRVMLSSQVPLEPPLLFLLEEYKNYLDAANMSMRVRRHSDPARRGELSVCDSISEWVTAADKKTAVDMSGGTVTVLEKVPVSKGQLKQYFYETKCNPMGYTKEGCRGIDKRHWNSQCRTTQSYVRALTMDSKKRIGWRFIRIDTSCVCTLTIKRGR", "values": [{"measurement": "Kd", "setting": "[3]", "value": "~1.8", "unit": "nM"}, {"measurement": "Kd", "setting": "[4]", "value": "~1", "unit": "nM"}]}]}
